Laboratory results published in patent US20200164038A1, “MODIFIED NUCLEOSIDE, NUCLEOTIDE, AND NUCLEIC ACID COMPOSITIONS” (ModernaTX, Inc., priority 2011, published 2020).

Tests used:
Factor IX = Factor IX mRNA transfected in serum-free media, peptide detection by MALDI; assay type: cell-based, human; conditions: 8 peptides detected, 7 unique to Factor IX
From the text: The cell culture supernatant was collected and subjected to trypsin digestion before undergoing 2-dimensional HPLC separation of the peptides Matrix-assisted laser desorption/ionization was used to detect the peptides. 8 peptides were detected and 7 of the detected peptides are unique to Factor IX.

[1] = test system: peripheral blood mononuclear cells (PBMC); assay type: cell-based, human
Description: (§1) 500 ng of G-CSF mRNA modified with 5-methylcytosine (5mC) and pseudouridine (pseudoU) or unmodified G-CSF mRNA was transfected with 0.4 uL of Lipofectamine 2000 into peripheral blood mononuclear cells (PBMC) from three normal blood donors (D1, D2, and D3). […] The supernatant was harvested 6 hours and 18 hours after transfection and run by ELISA to determine the protein expression. The expression of G-CSF, IFN-alpha, and TNF-alpha for Donor 1 is shown in Table 86, Donor 2 is shown in Table 87 and Donor 3 is shown in Table 88.

[2] = test system: peripheral blood mononuclear cells (PBMC); test: Modified RNA transfected in PBMC: G-CSF by ELISA at 6 and 18 hours; assay type: cell-based, human; conditions: Donor 2, 18 hours
Description: as §1

[3] = test system: peripheral blood mononuclear cells (PBMC); test: In vitro PBMC study, percent modification: IFN-alpha and TNF-alpha by ELISA, PC ratio; assay type: cell-based, human
Description: The supernatant was harvested and run by ELISA 22 hours after transfection to determine the protein expression.

mice = test: Saline formulation: human protein in mouse serum 13 hours after injection; assay type: in vivo; conditions: G-CSF group, 100 ug
Description: The mice were bled at 13 hours after the injection to determine the concentration of the human polypeptide in serum in pg/mL. (G-CSF groups measured human G-CSF in mouse serum and EPO groups measured human EPO in mouse serum).

[4] = Stability of modified RNA on storage (gel electrophoresis); assay type: physicochemical
Description: Stability experiments were conducted to obtain a better understanding of storage conditions to retain the integrity of modified RNA. […] 40° C. 37° C. 25° C. 4° C. or −20° C. After the mRNA had been stored for 0 hours, 2 hours, 6 hours, 24 hours, 48 hours, 5 days and 14 days, the mRNA was analyzed by gel electrophoresis using a Bio-Rad EXPERION™ system. The modified, unmodified and lipoplexed G-CSF mRNA was also stored in RNASTABLE® (Biomatrica, Inc. San Diego, Calif.) at 40° C. or water at −80° C. or 40° C. for 35 days before being analyzed by gel electrophoresis.
mRNA samples stored at 4° C. 25° C. and 37° C. were stored in 1×TE buffer or the formulation buffer (150 mM sodium chloride, 2 mM calcium chloride, 2 mM phosphate, 0.5 mM EDTA at a pH of 6.5). The mRNA stored at 4° C. was stable to at least 60 days in both the TE and formulation buffer. At 25° C. the mRNA in formulation buffer was stable out to 14 days and the TE buffer was stable out to at least 6 days. Storage of mRNA in the formulation buffer at 37° C. was stable to 6 days compared to the TE buffer which was stable only until 4 days.

Female BALB/C mice = test: In vivo detection of innate immune response: human G-CSF and mouse IFN-alpha in serum; conditions: Protein: Cytokine Ratio
Description: Blood is collected at 8 hours after dosing and using ELISA the protein levels of G-CSF and interferon-alpha (IFN-alpha) is determined by ELISA and are shown in Table 81.

[5] = test system: Human primary foreskin fibroblasts (BJ fibroblasts); test: Innate immune response in BJ fibroblasts, repeat transfection (IFN-beta, IL-6); assay type: cell-based; conditions: daily transfection, Day 1

Factor IX Gen 1: Factor IX mRNA SEQ ID NO 10, Cap1, fully modified with 5-methylcytosine and pseudouridine
expression of Factor IX protein (Factor IX): able to express full-length Factor IX protein

B1: 100% modification: G-CSF mRNA (SEQ ID NO 6, Cap1) completely modified with 5mC and pseudoU (nucleic acid, listed as Homo sapiens)
chain: GGGAAAUAAGAGAGAAAAGAAGAGUAAGAAGAAAUAUAAGAGCCACCAUGGCCGGUCCCGCGACCCAAAGCCCCAUGAAACUUAUGGCCCUGCAGUUGCUGCUUUGGCACUCGGCCCUCUGGACAGUCCAAGAAGCGACUCCUCUCGGACCUGCCUCAUCGUUGCCGCAGUCAUUCCUUUUGAAGUGUCUGGAGCAGGUGCGAAAGAUUCAGGGCGAUGGAGCCGCACUCCAAGAGAAGCUCUGCGCGACAUACAAACUUUGCCAUCCCGAGGAGCUCGUACUGCUCGGGCACAGCUUGGGGAUUCCCUGGGCUCCUCUCUCGUCCUGUCCGUCGCAGGCUUUGCAGUUGGCAGGGUGCCUUUCCCAGCUCCACUCCGGUUUGUUCUUGUAUCAGGGACUGCUGCAAGCCCUUGAGGGAAUCUCGCCAGAAUUGGGCCCGACGCUGGACACGUUGCAGCUCGACGUGGCGGAUUUCGCAACAACCAUCUGGCAGCAGAUGGAGGAACUGGGGAUGGCACCCGCGCUGCAGCCCACGCAGGGGGCAAUGCCGGCCUUUGCGUCCGCGUUUCAGCGCAGGGCGGGUGGAGUCCUCGUAGCGAGCCACCUUCAAUCAUUUUUGGAAGUCUCGUACCGGGUGCUGAGACAUCUUGCGCAGCCGUGAAGCGCUGCCUUCUGCGGGGCUUGCCUUCUGGCCAUGCCCUUCUUCUCUCCCUUGCACCUGUACCUCUUGGUCUUUGAAUAAAGCCUGAGUAGGAAG
modifications: Cap1; 5-methylcytidine, pseudouridine
IFN-alpha [1]: 1 pg/mL | G-CSF [2]: 432 pg/mL | TNF-alpha Expression [3]: 11.1 pg/mL | better ratio of protein/cytokine production than natural G-CSF mRNA, IFN-alpha [3]: 100 fold | better ratio of protein/cytokine production than natural G-CSF mRNA, TNF-alpha [3]: 27 fold

B2: G-CSF Gen 1: G-CSF mRNA SEQ ID NO 6, Cap1, fully modified with 5-methylcytosine and pseudouridine (nucleic acid, listed as Homo sapiens)
chain: GGGAAAUAAGAGAGAAAAGAAGAGUAAGAAGAAAUAUAAGAGCCACCAUGGCCGGUCCCGCGACCCAAAGCCCCAUGAAACUUAUGGCCCUGCAGUUGCUGCUUUGGCACUCGGCCCUCUGGACAGUCCAAGAAGCGACUCCUCUCGGACCUGCCUCAUCGUUGCCGCAGUCAUUCCUUUUGAAGUGUCUGGAGCAGGUGCGAAAGAUUCAGGGCGAUGGAGCCGCACUCCAAGAGAAGCUCUGCGCGACAUACAAACUUUGCCAUCCCGAGGAGCUCGUACUGCUCGGGCACAGCUUGGGGAUUCCCUGGGCUCCUCUCUCGUCCUGUCCGUCGCAGGCUUUGCAGUUGGCAGGGUGCCUUUCCCAGCUCCACUCCGGUUUGUUCUUGUAUCAGGGACUGCUGCAAGCCCUUGAGGGAAUCUCGCCAGAAUUGGGCCCGACGCUGGACACGUUGCAGCUCGACGUGGCGGAUUUCGCAACAACCAUCUGGCAGCAGAUGGAGGAACUGGGGAUGGCACCCGCGCUGCAGCCCACGCAGGGGGCAAUGCCGGCCUUUGCGUCCGCGUUUCAGCGCAGGGCGGGUGGAGUCCUCGUAGCGAGCCACCUUCAAUCAUUUUUGGAAGUCUCGUACCGGGUGCUGAGACAUCUUGCGCAGCCGUGAAGCGCUGCCUUCUGCGGGGCUUGCCUUCUGGCCAUGCCCUUCUUCUCUCCCUUGCACCUGUACCUCUUGGUCUUUGAAUAAAGCCUGAGUAGGAAG
modifications: Cap1; 5-methylcytosine, pseudouridine
Average Protein Product, human G-CSF (mice): 45 pg/mL, serum | stable out to ([4]; stored at 25° C., with or without lipoplex): 120 h | stable out to ([4]; stored at 37° C.): 24 h | stable out to ([4]; stored at 50° C.): 6 h

B3: G-CSF Gen 2: G-CSF mRNA SEQ ID NO 6, Cap1, fully modified with 5-methylcytosine and N1-methylpseudouridine (nucleic acid, listed as Homo sapiens)
chain: GGGAAAUAAGAGAGAAAAGAAGAGUAAGAAGAAAUAUAAGAGCCACCAUGGCCGGUCCCGCGACCCAAAGCCCCAUGAAACUUAUGGCCCUGCAGUUGCUGCUUUGGCACUCGGCCCUCUGGACAGUCCAAGAAGCGACUCCUCUCGGACCUGCCUCAUCGUUGCCGCAGUCAUUCCUUUUGAAGUGUCUGGAGCAGGUGCGAAAGAUUCAGGGCGAUGGAGCCGCACUCCAAGAGAAGCUCUGCGCGACAUACAAACUUUGCCAUCCCGAGGAGCUCGUACUGCUCGGGCACAGCUUGGGGAUUCCCUGGGCUCCUCUCUCGUCCUGUCCGUCGCAGGCUUUGCAGUUGGCAGGGUGCCUUUCCCAGCUCCACUCCGGUUUGUUCUUGUAUCAGGGACUGCUGCAAGCCCUUGAGGGAAUCUCGCCAGAAUUGGGCCCGACGCUGGACACGUUGCAGCUCGACGUGGCGGAUUUCGCAACAACCAUCUGGCAGCAGAUGGAGGAACUGGGGAUGGCACCCGCGCUGCAGCCCACGCAGGGGGCAAUGCCGGCCUUUGCGUCCGCGUUUCAGCGCAGGGCGGGUGGAGUCCUCGUAGCGAGCCACCUUCAAUCAUUUUUGGAAGUCUCGUACCGGGUGCUGAGACAUCUUGCGCAGCCGUGAAGCGCUGCCUUCUGCGGGGCUUGCCUUCUGGCCAUGCCCUUCUUCUCUCCCUUGCACCUGUACCUCUUGGUCUUUGAAUAAAGCCUGAGUAGGAAG
modifications: Cap1; 5-methylcytosine, N1-methylpseudouridine
PC Ratio (Female BALB/C mice): 748 | IFNbeta [5]: 3 pg/mL
